Results from PMC3971956.

What was measured:
Assay in all cases: SAXS
PARP-1 full-length = PARP-1 full-length (human, UniProt P09874 1-1014)
AB = AB (human, UniProt P09874 1-232)
ABC = ABC (human, UniProt P09874 1-373)

Measured: binding result

Chain of ABC (P09874 1-373): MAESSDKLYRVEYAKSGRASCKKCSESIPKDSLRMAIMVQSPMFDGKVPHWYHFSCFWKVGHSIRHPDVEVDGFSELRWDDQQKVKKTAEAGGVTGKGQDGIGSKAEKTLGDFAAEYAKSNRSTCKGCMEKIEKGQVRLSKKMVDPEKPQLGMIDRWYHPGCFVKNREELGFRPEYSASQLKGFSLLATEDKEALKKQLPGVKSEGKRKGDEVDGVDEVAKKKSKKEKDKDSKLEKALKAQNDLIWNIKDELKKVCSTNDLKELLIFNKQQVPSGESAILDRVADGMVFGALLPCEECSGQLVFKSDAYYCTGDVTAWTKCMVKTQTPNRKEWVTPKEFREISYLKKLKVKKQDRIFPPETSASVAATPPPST
Chain of PARP-1 full-length (P09874 whole entry): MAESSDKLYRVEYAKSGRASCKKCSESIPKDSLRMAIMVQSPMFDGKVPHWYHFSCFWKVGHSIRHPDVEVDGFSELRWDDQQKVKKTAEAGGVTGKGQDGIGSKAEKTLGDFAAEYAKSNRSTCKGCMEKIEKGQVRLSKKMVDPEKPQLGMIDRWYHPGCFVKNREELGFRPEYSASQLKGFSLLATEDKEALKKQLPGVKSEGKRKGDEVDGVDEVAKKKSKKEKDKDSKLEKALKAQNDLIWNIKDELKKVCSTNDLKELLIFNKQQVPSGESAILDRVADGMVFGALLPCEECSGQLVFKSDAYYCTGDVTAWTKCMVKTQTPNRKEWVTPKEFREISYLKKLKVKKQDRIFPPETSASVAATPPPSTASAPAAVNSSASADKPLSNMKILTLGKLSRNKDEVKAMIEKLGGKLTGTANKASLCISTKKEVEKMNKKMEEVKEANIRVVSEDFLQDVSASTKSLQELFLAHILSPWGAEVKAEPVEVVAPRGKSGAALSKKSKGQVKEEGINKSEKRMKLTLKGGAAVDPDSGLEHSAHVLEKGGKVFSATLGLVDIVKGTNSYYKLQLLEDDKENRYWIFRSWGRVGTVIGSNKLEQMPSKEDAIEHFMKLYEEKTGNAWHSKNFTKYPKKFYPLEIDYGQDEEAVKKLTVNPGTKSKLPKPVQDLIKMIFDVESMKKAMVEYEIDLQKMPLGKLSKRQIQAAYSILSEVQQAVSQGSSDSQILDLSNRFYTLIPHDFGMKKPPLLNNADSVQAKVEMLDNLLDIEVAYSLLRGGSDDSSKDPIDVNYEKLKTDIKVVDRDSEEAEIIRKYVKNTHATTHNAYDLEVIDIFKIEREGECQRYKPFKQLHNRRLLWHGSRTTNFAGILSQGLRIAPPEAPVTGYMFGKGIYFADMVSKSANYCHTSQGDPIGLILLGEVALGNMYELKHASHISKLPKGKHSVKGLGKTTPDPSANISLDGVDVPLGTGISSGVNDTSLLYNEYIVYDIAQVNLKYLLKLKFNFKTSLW
Chain of AB (P09874 1-232): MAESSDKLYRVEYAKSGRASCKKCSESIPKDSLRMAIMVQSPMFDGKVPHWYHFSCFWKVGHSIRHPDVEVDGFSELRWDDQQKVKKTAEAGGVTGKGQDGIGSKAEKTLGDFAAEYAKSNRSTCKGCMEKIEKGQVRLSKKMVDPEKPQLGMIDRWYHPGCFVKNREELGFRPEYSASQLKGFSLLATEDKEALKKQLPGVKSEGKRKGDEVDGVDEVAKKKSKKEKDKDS

B1: 8-mer DNA (dsDNA)
DNA 1: GGAATTCC
DNA 2: GGAATTCC
binds: all assays above
